The values that follow come from paper PMC3898472, “Molecular Basis for DNA Double-Strand Break Annealing and Primer Extension by an NHEJ DNA Polymerase”.

Data set [1] addresses Mt-PolDom (LigD polymerase domain) (UniProt P9WNV3 1-300). Briefly: DNase I footprinting; 5 ug protein. As to conditions: protein: recombinant; label: 32P 5'-end label.
Another data set deals with Mt-PolDom (crystal) (UniProt P9WNV3 1-300). Briefly: crystal structure 2.4 A; 10 mM MnCl2. The settings on record: protein: recombinant.

B1: 1-nt gapped FP-T/FP-P/FP-D, 5'-P (dsDNA)
DNA 1: GGCAGCTTGGATCTTGTCGAAAAACGTCAACATTCGCCTAGGCTTCGGCAATACTGAGGTCTTGTCGAAAAACGTCAACATTGCGTGGCC
DNA 2: GGCCACGCAATGTTGACGTTTTTCGACAAGACCTCAGTAT
DNA 3: GCCGAAGCCTAGGCGAATGTTGACGTTTTTCGACAAGATCCAAGCTGCC
modifications: 5'-phosphate on FP-D
As to B1, the binding result in data set [1] is given as “binds”.

B2: annealed break T/D (dsDNA)
DNA 1: GCCGCAGATC
DNA 2: GCGGC
modifications: 5'-phosphate on D
Take B2: in the data set with Mt-PolDom (crystal), the binding result is recorded as “binds”.
